Source: US20250277196A1, “EPSPS MUTANTS AND METHOD OF ITS USES” (CROPEDIT BIOTECHNOLOGY INC., priority 2021, published 2025)
Positions count from the first letter of the chain named. “And” between values parts separate entries of the source, which are not always exact repeats. Equal entries are not always repeated.

Assays:
E. coli lacking EPSPS [1] = experiment: Glyphosate resistance comparison among rice EPSPS mutants: growth of transformed E. coli on M9 medium with different glyphosate concentrations; assay type: cell-based, Escherichia coli; conditions: M9 medium; for glyphosate concentration of the medium on which the strain can grow: tested 0, 0.5, 2, 4, 5, 25, 75, 100 mM glyphosate, FIG. 2, FIG. 3
Experimental: (§1) a) PCR system: According to the primer and template mixed PCR system corresponding to the target vector in the above table, the forward primer was 1.25 μl, the reverse primer was 1.25 μl, the template plasmid was 2 μl, the Q5 PCR master mix was 12.5 μl, and ddH2O was […].
b) PCR reaction conditions were as following: the annealing temperature was set according to the annealing temperature corresponding to the target carrier in the above table.
(§2) c) Took out 5 μl of the obtained PCR product and added it to the loading buffer for agarose gel electrophoresis. A band with a size of about 4.5 kb was considered successful.
(§3) d) Used NEB's KLD enzyme mixture to remove the template and connected the PCR product. The connection system was 5 μl KLD buffer, 1 μl KLD MIX, 1 μl PCR product, and ddH2O 3 μl. After ligating at room temperature for 5 min, transformed it into E. coli.
(§4) e) The ligation product was transformed into Dh5a competent E. coli lacking EPSPS. After resuscitation, the cells were washed twice with M9 medium, and then the washed cells were spread on M9 medium and cultured for 48 h. Sequenced the grown single colony (Tsingke Biological Technology Co., Ltd.), and selected the correct mutant to save for future use.
OsWt represents the wild type rice EPSPS(SEQ ID NO:2). […] OsGA represents the mutated rice EPSPS with mutation G172A. (SEQ ID NO:7) OsPS represents the mutated rice EPSPS with mutation P177S. (SEQ ID NO:8) OsGAPS represents the mutated rice EPSPS with mutation G172A and P177S. (SEQ ID NO:9) OsGAVA represents the mutated rice EPSPS with mutation G172A and V403A(SEQ ID NO:4). OsPSVA represents the mutated rice EPSPS with mutation P177S and V403A(SEQ ID NO:5). OsGPV represents the mutated rice EPSPS with mutation G172A, P177S and V403A(SEQ ID NO:6). OsTIPS represents the mutated rice EPSPS with mutation T173I and P177S. (SEQ ID NO: 35). OsTIPT represents the mutated rice EPSPS with mutation T173I and P177T. (SEQ ID NO:36). OsTIPSVA represents the mutated rice EPSPS with mutation T173I, P177S and V403A. (SEQ ID NO:37). OsTIPTVA represents the mutated rice EPSPS with mutation T173I, P177T and V403A. (SEQ ID NO:38). CP4 represents the wild type EPSPS from Agrobacterium tumefaciens. (SEQ ID NO:39)
Each product obtained from the above steps were transformed into E. coli lacking EPSPS. By detecting the growth of the transformed Escherichia coli on M9 medium containing different glyphosate concentrations (0 mM, 0.5 mM, 2 mM, 4 mM, 5 mM, 25 mM, 75 mM, 100 mM), the 1 mM glyphosate here was equivalent to […] glyphosate acid, the glyphosate resistance of rice EPSPS mutants was verified.

E. coli lacking EPSPS [2] = experiment: Resistance test of soybean EPSPS mutant and comparison with wild type (FIG. 4); assay type: cell-based; conditions: 0.5 mM glyphosate
Excerpt: According to the wild-type sequence information of soybean (Glycine max) EPSPS (SEQ ID NO:36), the gene was synthesized and inserted into the vector pKED2 to obtain the vector GmWt. The V403 site of GmWt was mutated to A by PCR, and the vector GmVA expressing the soybean EPSPS mutant protein containing the V403A mutation was obtained. The specific experimental steps were as following:
as §1
(§5) b) PCR reaction conditions were as follows: the annealing temperature was set according to the annealing temperature corresponding to the target carrier in the above table.
as §2, §3
e) The ligation product was transformed into Dh5a competent E. coli lacking EPSPS. […]

E. coli lacking EPSPS [3] = experiment: Resistance test of flax EPSPS V403A mutant and comparison with wild type (FIG. 4); assay type: cell-based; conditions: presence of 1 mM and 2 mM glyphosate
Experimental: The flax (Linum usitatissimum) EPSPS mutant sequence(SEQ ID NO: 27) was synthesized and cloned into the pKED2 vector to obtain the vector LuVA. The vector LuWt was created after introducing A403V mutation by PCR.
as §1, §5, §2
d) Used NEB's KLD enzyme mixture to remove the template and then connected the PCR product. The connection system was 5 μl KLD buffer, 1 μl KLD MIX, 1 μl PCR product, and ddH2O 3 μl. After ligating at room temperature for 5 min, transformed it into E. coli.
e) The ligation product was transformed into Dh5a competent E. coli lacking EPSPS. After resuscitation, the cells were washed twice with M9 medium, and then the washed cells were spread on M9 medium and cultured for 48 h. […]

E. coli lacking EPSPS [4] = experiment: Resistance identification of flax EPSPS mutants LuGPV, LuTIPT, LuTIPTVA (FIG. 5, FIG. 6); assay type: cell-based
Excerpt: The G172 position and P177 position of LuVA were mutated into A and S at the same time by PCR, and a 3-point mutant LuGPV was obtained.
The T173 and P177 positions of LuWT were simultaneously mutated to I and T by PCR, and a […] mutant LuTIPT was obtained.
The T173 and P177 positions of LuVA were simultaneously mutated to I and T by PCR, and a 3-point mutant LuTIPTVA was obtained.
as §1, §5, §2, §3, §4
The resistance results were shown in FIG. 5: LuWt(SEQ ID NO:26) represents the EPSPS2 gene of flax, LuGPV (SEQ ID NO:30) represents the flax G172A+P177S+V403A three-point mutant. The resistance results were shown in FIG. 6: LuTIPT (SEQ ID NO:28) was the flax T173I+[…] double-point mutants, LuTIPTVA (SEQ ID NO:29) was flax T173I+P177T+V403A three-point mutants.

B1: OsGAPS (protein)
chain: MAAKAEEIVLQPIREISGAVQLPGSKSLSNRILLLSALSEGTTVVDNLLNSEDVHYMLEALKALGLSVEADKVAKRAVVVGCGGKFPVEKDAKEEVQLFLGNAATAMRSLTAAVTAAGGNATYVLDGVPRMRERPIGDLVVGLKQLGADVDCFLGTECPPVRVKGIGGLPGGKVKLSGSISSQYLSALLMAAPLALGDVEIEIIDKLISIPYVEMTLRLMERFGVKAEHSDSWDRFYIKGGQKYKSPGNAYVEGDASSASYFLAGAAITGGTVTVQGCGTTSLQGDVKFAEVLEMMGAKVTWTDTSVTVTGPPREPYGKKHLKAVDVNMNKMPDVAMTLAVVALFADGPTAIRDVASWRVKETERMVAIRTELTKLGASVEEGPDYCIITPPEKLNITAIDTYDDHRMAMAFSLAACADVPVTIRDPGCTRKTFPNYFDVLSTFVRN
modifications: This sequence is synthesized in lab.
growth on medium containing 0 mM glyphosate (E. coli lacking EPSPS [1]; 0 mM glyphosate, complementation of E. coli EPSPS function): cannot grow

B2: OsGA (protein)
chain: B1 chain with S109P
modifications: This sequence is synthesized in lab.
growth on 0.5 mM glyphosate medium (E. coli lacking EPSPS [1]): can grow

B3: OsWt: wild type rice EPSPS (SEQ ID NO:2), chloroplast transit peptide removed (protein)
chain: B1 chain with A104G, S109P
modifications: This sequence is synthesized in lab.
growth on 0.5 mM glyphosate medium (E. coli lacking EPSPS [1]): cannot grow

B4: OsGAVA (protein)
chain: B1 chain with S109P, V335A
modifications: This sequence is synthesized in lab.
glyphosate concentration of the medium on which the strain can grow (E. coli lacking EPSPS [1]): ≤ 75 mM

B5: OsTIPTVA (protein)
chain: B1 chain with A104G, T105I, S109T, V335A
modifications: This sequence is synthesized in lab.
glyphosate concentration of the medium on which the strain can grow (E. coli lacking EPSPS [1]): 100 mM and 75 mM

B6: OsPSVA (protein)
chain: B1 chain with A103G, V335A
modifications: This sequence is synthesized in lab.
glyphosate concentration of the medium on which the strain can grow (E. coli lacking EPSPS [1]): ≤ 4 mM

B7: OsPS (protein)
chain: B1 chain with A104G
modifications: This sequence is synthesized in lab.
growth on 0.5 mM glyphosate medium (E. coli lacking EPSPS [1]): can grow

B8: GmVA (protein)
DNA: MAAAEKPSTAPEIVLEPIKDISGTITLPGSKSLSNRILLLAALSEGTTVVDNLLYSEDIHYMLGALRTLGLRVEDDQTTKQAIVEGCGGLFPTIKESKDEINLFLGNAGTAMRPLTAAVVAAGGNASYVLDGVPRMRERPIGDLVAGLKQLGADVDCFLGTNCPPVRVNGKGGLPGGKVKLSGSISSQYLTALLMAAPLALGDVEIEIVDKLISVPYVEMTLKLMERFGVSVEHSGNWDKFLVHGGQKYKSPGNAFVEGDASSASYFLAGAAVTGGTITVNGCGTNSLQGDVKFAEVLEKMGAKVTWSENSVTVTGPPQDSSGQKVLQGIDVNMNKMPDAAMTLAVVALFANGQTAIRDVASWRVKETERMIAICTELRKLGATVEEGPDYCVITPPEKLNVTAIDTYDDHRMAMAFSLAACGDVPVTIKDPGCTRKTFPDYFEVLERFTRH
modifications: This sequence is synthesized in lab.
growth status compared with GmWt (E. coli lacking EPSPS [2]): significantly higher than that of GmWt

B9: LuVA (protein)
DNA: MTVPEEIVLQPIKDISGIVTLPGSKSLSNRILLLAALSEGKTVVDNLLNSDDVHYMLGALKTLGLNVEHSSEQKRAIVEGRGGVFPVGKLGKNDIELFLGNAGTAMRPLTAAVTAAGGNSSYILDGVPRMRERPIGDLVVGLKQLGADVSCSSTSCPPVHVNAKGGLPGGKVKLSGSISSQYLTALLMAAPLALGDVEIEIVDKLISVPYVDMTLKLMERFGVAVEHSGSWDRFFVKGGQKYKSPGNAYVEGDASSASYFLAGAAITGGTITVEGCGTSSLQGDVKFAEVLEKMGAKVTWTETSVTVTGPPRDASGKKHLRAVDVNMNKMPDAAMTLAVVALYADGPTAIRDVASWRVKETERMIAVCTELRKLGATVEEGPDYCIITPPEKLSIAEIDTYDDHRMAMAFSLAACADVPVTIRDPGCTKKTFPDYFEVLERYTKH
modifications: This sequence is synthesized in lab.
growth status compared with LuWt (E. coli lacking EPSPS [3]): significantly better than that of LuWt

B10: LuTIPTVA (protein)
DNA: B9 DNA with T104I, P108T
modifications: This sequence is synthesized in lab.
resistance compared with LuTIPT (E. coli lacking EPSPS [4]; FIG. 6): higher than that of LuTIPT

B11: LuGPV (protein)
DNA: B9 DNA with G103A, P108S
modifications: This sequence is synthesized in lab.
resistance compared with CP4 (colony saturation) (E. coli lacking EPSPS [4]; 100 mM glyphosate pressure): higher than CP4 | glyphosate resistance (E. coli lacking EPSPS [4]; flax EPSPS mutant in E. coli, FIG. 5): strong glyphosate resistance
